Experimental data as given in patent publication US20130129725A1 (published 2013).
Where a chain is given by its changes, count along the chain named. Blank lines part the entries; values can stand above or below the binder they belong to.

Target: biotinylated hu-β-klotho (UniProt Q86Z14 53-996, biotinylated (sites not given))
Test: Octet BLI

Sequence of biotinylated hu-β-klotho (Q86Z14 53-996): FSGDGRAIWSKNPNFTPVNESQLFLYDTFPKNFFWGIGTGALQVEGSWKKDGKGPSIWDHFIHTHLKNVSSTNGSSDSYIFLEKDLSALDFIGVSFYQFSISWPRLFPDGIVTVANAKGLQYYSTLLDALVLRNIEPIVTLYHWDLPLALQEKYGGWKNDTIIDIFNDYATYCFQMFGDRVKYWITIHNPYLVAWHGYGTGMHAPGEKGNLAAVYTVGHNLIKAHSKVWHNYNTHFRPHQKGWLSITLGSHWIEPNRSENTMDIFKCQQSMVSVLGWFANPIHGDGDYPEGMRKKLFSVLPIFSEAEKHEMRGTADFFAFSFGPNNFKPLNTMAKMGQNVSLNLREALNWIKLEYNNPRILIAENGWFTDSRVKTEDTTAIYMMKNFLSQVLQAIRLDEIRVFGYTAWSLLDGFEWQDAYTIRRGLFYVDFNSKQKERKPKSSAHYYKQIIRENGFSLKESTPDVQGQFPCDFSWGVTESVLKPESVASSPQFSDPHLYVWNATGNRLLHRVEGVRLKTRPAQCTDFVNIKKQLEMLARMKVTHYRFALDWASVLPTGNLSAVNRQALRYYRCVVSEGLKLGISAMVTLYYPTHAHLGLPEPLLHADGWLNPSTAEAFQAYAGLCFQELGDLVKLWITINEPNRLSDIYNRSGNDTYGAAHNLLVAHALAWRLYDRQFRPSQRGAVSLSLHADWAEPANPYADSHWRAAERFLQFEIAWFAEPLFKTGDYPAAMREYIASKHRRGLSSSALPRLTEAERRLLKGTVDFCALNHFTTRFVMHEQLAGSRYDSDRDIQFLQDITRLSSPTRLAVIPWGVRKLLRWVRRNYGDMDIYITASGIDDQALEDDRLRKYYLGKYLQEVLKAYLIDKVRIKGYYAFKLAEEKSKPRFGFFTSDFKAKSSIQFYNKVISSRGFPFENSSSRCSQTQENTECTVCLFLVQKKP

B3: 3F4 (antibody, V domains shown)
VH: QVQLVESGGGVVQPGRSLRLSCAASGFIFRSYGMHWVRQAPGKGLEWVAVISYDGSNKYYADSVKGRFTISRDNSKNTLYLQMNSLRAEDTAVYYCARDHPVAGTSFDYWGQGTLVTVSS
VL: QSVLTQPPSVSAAPGQKVTISCSGSSSNIGNNYVSWYQQLPGTAPKLLIYDNNNRPSGIPDRFSGSKSGTSATLGITGLQTGDEADYYCETWDSSLSAGVFGGGTKLTVLG
Kd: 0.281 nM

B4: 1A2 (antibody, V domains shown)
VH: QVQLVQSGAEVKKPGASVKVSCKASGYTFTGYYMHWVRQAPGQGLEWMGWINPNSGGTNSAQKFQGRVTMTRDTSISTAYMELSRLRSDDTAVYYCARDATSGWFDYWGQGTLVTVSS
VL: DIVMTQTPLSSPVTLGQPASISCRSSQSLVYSDGNTYLSWLQQRPGQPPRLLIYKISNRFSGVPDRFSGSGAGTDFTLKISRVEADDVGIYYCMQAIEFPWTFGQGTQVEIKR
Kd: 2.14 nM

B5: 1B5 (antibody, V domains shown)
VH: QVQLVQSGAEVKKPGASVKVSCKASGYTFTAYYMHWVRQAPGQGLEWMGWINPNSGGTNSAQKFQGRVTMTRDTSIRTAYMELSWLRSDDTAVYYCARDATSGWFDFWGQGTPVTVSS
VL: B4 VL with S10T, Y31H, S32Y, D86E, I97L, Q108K
Kd: 0.578 nM

B6: 3B4 (antibody, V domains shown)
VH: B5 VH with F107I
VL: B4 VL with Y31H, S32Y, D86E, I97L, Q108K
Kd: 6.08 nM

The next lines start with the values.

Kd: 0.422 nM
B1: 8F9 (antibody, V domains shown)
VH: B3 VH with I28T, R30S, S52W, S56R, Y60H
VL: B3 VL with N54K, E90G, G99V

Kd: 0.298 nM
B2: 9D10 (antibody, V domains shown)
VH: B3 VH with I28T, S52W, S56R, K58E, Q82R
VL: B3 VL with N54R, E90G, G99V

Kd: 0.563 nM
B7: 10H3 (antibody, V domains shown)
VH: B5 VH with K12R, N54Y, R77S, P113L
VL: B4 VL with Y31H, S32Y, E84A, D86E, I97L, Q108K
